{
  "source": "patent US20140087995A1",
  "about": "(published 2014)",
  "key": {"rat calcitonin receptor [1]": {"target": "T1, rat calcitonin receptor (rat, UniProt P32214 25-516)", "T1 construct": "whole, on cells; Used as membranes prepared from the transfected cells; also called rCTR; rCT", "T1 sequence (looked up)": "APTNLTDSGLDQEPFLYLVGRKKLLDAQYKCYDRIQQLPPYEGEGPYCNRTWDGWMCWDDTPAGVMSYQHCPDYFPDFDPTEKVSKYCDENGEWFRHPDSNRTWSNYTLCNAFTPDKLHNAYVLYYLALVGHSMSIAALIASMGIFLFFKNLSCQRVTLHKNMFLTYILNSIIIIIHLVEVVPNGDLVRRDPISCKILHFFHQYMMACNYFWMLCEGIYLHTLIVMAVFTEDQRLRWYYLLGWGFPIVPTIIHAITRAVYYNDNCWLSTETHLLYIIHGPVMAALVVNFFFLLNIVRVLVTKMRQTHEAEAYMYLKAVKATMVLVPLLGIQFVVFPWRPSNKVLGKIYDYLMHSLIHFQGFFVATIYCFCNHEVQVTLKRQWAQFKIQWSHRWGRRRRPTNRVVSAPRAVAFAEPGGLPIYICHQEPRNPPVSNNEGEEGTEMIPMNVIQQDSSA", "experiment": "ratio of binding IC50 at rat calcitonin receptor to IC50 at rat amylin receptor (reference)"}, "[2]": {"target": "T2, human calcitonin receptor (human, UniProt P30988 25-474)", "T2 construct": "whole, on cells; Used as membranes prepared from the transfected cells; also called hCTR; hCT", "T2 sequence (looked up)": "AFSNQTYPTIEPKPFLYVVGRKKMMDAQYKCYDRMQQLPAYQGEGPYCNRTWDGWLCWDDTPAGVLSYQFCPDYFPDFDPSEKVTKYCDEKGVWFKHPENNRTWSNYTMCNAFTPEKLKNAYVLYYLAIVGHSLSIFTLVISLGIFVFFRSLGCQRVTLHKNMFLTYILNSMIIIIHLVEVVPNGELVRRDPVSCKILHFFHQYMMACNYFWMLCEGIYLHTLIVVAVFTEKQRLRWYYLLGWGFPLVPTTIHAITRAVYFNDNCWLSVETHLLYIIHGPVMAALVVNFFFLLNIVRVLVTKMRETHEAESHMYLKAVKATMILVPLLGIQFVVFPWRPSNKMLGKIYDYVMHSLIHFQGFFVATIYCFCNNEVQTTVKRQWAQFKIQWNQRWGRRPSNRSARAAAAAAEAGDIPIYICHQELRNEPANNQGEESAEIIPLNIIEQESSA", "experiment": "ratio of binding IC50 at human calcitonin receptor to IC50 at human amylin receptor (reference)", "procedure": "The resulting pellet was resuspended, homogenized and centrifuged (20.000 rpm, 15 min) in a buffer containing 20 mM Na-HEPES and 0.1 mM EDTA (pH 7.4, buffer 2). The resulting pellet was resuspended in buffer 2 and protein concentration was measured (BCA protein Assay, Pierce). The homogenate was kept cold during the whole procedure. The membranes were kept at −80° C. until use. The assay was performed in a 384 well Optiplate (PerkinElmer) in a total volume of 40 ul. Membranes were mixed with SPA beads. Final concentration of membranes 35 ng/μL final and SPA beads was 0.05 mg/well. Test-compounds were dissolved in DMSO and further diluted in assay buffer (50 mM Hepes, pH 7.4, 1 mM CaCl2, 5 mM MgCl₂, 0.1% OA and 0.02% Tween20). […] The final mixture was incubated with shaking at 400 rpm for 120 min at 25° C. prior to centrifugation (1500 rpm, 10 min). Samples were analyzed on TopCounter™ (Packard). The IC₅₀ was calculated using (one site binding competition analysis) GraphPad Prism5 as a measure of receptor affinity.\nMembranes were prepared in the following way; the cells were rinsed with PBS and incubated with Versene for approximately 5 min before harvesting. The cells were flushed with PBS and the cell-suspension was centrifuged for 5 min at 1000 rpm. Cells were homogenized (Ultrathurrax) in a buffer containing 20 mM Na-HEPES and 10 mM EDTA (pH 7.4) and centrifuged at 20.000 rpm for 15 min. The resulting pellet was resuspended, homogenized and centrifuged (20.000 rpm, 15 min) in a buffer containing 20 mM Na-HEPES and 0.1 mM EDTA (pH 7.4, buffer 2). The resulting pellet was resuspended in buffer 2 and protein concentration was measured (BCA protein Assay, Pierce). The homogenate was kept cold during the whole procedure. The membranes were kept at −80° C. until use. Assay was performed in a 384 well Optiplate (PerkinElmer) in a total volume of 40 ul. Membranes were mixed with SPA beads."}, "rat calcitonin receptor [3]": {"target": "T1, rat calcitonin receptor", "experiment": "SPA competition with 125I-calcitonin, membranes with rat calcitonin receptor (Assay VIII)"}},
  "note": "Numbered stars: 1 amine (or outer) side, 2 acyl side, 3 side chain; on linkers, the order of the positions; unused ones are H or OH. Bridge positions count the residues as written; N and C are the ends. Side chains are listed from the residue outwards. Ends that are not written are not given here. * marks the point of attachment. C20 diacid = O=C(O)CCCCCCCCCCCCCCCCCCC(=O)*; γGlu = O=C(O)[C@H](CCC(=O)[*:2])N[*:1]; AEEA = NCCOCCOCC(=O)O",
  "data": [
    {"binder": "K([AEEA-γGlu-C20 diacid])CNTATCATQRLAHFLRHSSPNFGAIPSSTNVGRNTY-NH2 (disulfide 2-7; N-terminus assumed; SMILES CC[C@H](C)[C@H](NC(=O)[C@H](C)NC(=O)CNC(=O)[C@H](Cc1ccccc1)NC(=O)[C@H](CC(N)=O)NC(=O)[C@@H]1CCCN1C(=O)[C@H](CO)NC(=O)[C@H](CO)NC(=O)[C@H](Cc1c[nH]cn1)NC(=O)[C@H](CCCNC(=N)N)NC(=O)[C@H](CC(C)C)NC(=O)[C@H](Cc1ccccc1)NC(=O)[C@H](Cc1c[nH]cn1)NC(=O)[C@H](C)NC(=O)[C@H](CC(C)C)NC(=O)[C@H](CCCNC(=N)N)NC(=O)[C@H](CCC(N)=O)NC(=O)[C@@H](NC(=O)[C@H](C)NC(=O)[C@@H]1CSSC[C@H](NC(=O)[C@@H](N)CCCCNC(=O)COCCOCCNC(=O)CC[C@H](NC(=O)CCCCCCCCCCCCCCCCCCC(=O)O)C(=O)O)C(=O)N[C@@H](CC(N)=O)C(=O)N[C@@H]([C@@H](C)O)C(=O)N[C@@H](C)C(=O)N[C@@H]([C@@H](C)O)C(=O)N1)[C@@H](C)O)C(=O)N1CCC[C@H]1C(=O)N[C@@H](CO)C(=O)N[C@@H](CO)C(=O)N[C@H](C(=O)N[C@@H](CC(N)=O)C(=O)N[C@H](C(=O)NCC(=O)N[C@@H](CCCNC(=N)N)C(=O)N[C@@H](CC(N)=O)C(=O)N[C@H](C(=O)N[C@@H](Cc1ccc(O)cc1)C(N)=O)[C@@H](C)O)C(C)C)[C@@H](C)O, Analogue of human amylin; disulfide and C-terminal amide as told for h-amylin; also called compound 84)", "values": [
      {"measurement": "Ratio rCT/rAmylin binding", "setting": "rat calcitonin receptor [1]", "value": 94.3},
      {"measurement": "Ratio hCT/hAmylin binding", "setting": "[2]", "value": 120},
      {"measurement": "IC50", "setting": "rat calcitonin receptor [3]", "value": 477, "unit": "nM"}
    ]},
    {"binder": "K([AEEA-γGlu-C20 diacid])CNTATCATQRLAKFLRHSSPNFGAIPSSTPVGSNTY-NH2 (disulfide 2-7; N-terminus assumed; SMILES CC[C@H](C)[C@H](NC(=O)[C@H](C)NC(=O)CNC(=O)[C@H](Cc1ccccc1)NC(=O)[C@H](CC(N)=O)NC(=O)[C@@H]1CCCN1C(=O)[C@H](CO)NC(=O)[C@H](CO)NC(=O)[C@H](Cc1c[nH]cn1)NC(=O)[C@H](CCCNC(=N)N)NC(=O)[C@H](CC(C)C)NC(=O)[C@H](Cc1ccccc1)NC(=O)[C@H](CCCCN)NC(=O)[C@H](C)NC(=O)[C@H](CC(C)C)NC(=O)[C@H](CCCNC(=N)N)NC(=O)[C@H](CCC(N)=O)NC(=O)[C@@H](NC(=O)[C@H](C)NC(=O)[C@@H]1CSSC[C@H](NC(=O)[C@@H](N)CCCCNC(=O)COCCOCCNC(=O)CC[C@H](NC(=O)CCCCCCCCCCCCCCCCCCC(=O)O)C(=O)O)C(=O)N[C@@H](CC(N)=O)C(=O)N[C@@H]([C@@H](C)O)C(=O)N[C@@H](C)C(=O)N[C@@H]([C@@H](C)O)C(=O)N1)[C@@H](C)O)C(=O)N1CCC[C@H]1C(=O)N[C@@H](CO)C(=O)N[C@@H](CO)C(=O)N[C@H](C(=O)N1CCC[C@H]1C(=O)N[C@H](C(=O)NCC(=O)N[C@@H](CO)C(=O)N[C@@H](CC(N)=O)C(=O)N[C@H](C(=O)N[C@@H](Cc1ccc(O)cc1)C(N)=O)[C@@H](C)O)C(C)C)[C@@H](C)O, Analogue of human amylin; disulfide and C-terminal amide as told for h-amylin; Acylation site is 1K, not Lys14; also called compound 74)", "values": [
      {"measurement": "Ratio rCT/rAmylin binding", "setting": "rat calcitonin receptor [1]", "value": 22.3},
      {"measurement": "Ratio hCT/hAmylin binding", "setting": "[2]", "value": 101},
      {"measurement": "IC50", "setting": "rat calcitonin receptor [3]", "value": 109, "unit": "nM"}
    ]},
    {"binder": "K([AEEA-γGlu-C20 diacid])CNTATCATQRLAHFLRHSSPNFGAIPSSTNVGHNTY-NH2 (disulfide 2-7; N-terminus assumed; SMILES CC[C@H](C)[C@H](NC(=O)[C@H](C)NC(=O)CNC(=O)[C@H](Cc1ccccc1)NC(=O)[C@H](CC(N)=O)NC(=O)[C@@H]1CCCN1C(=O)[C@H](CO)NC(=O)[C@H](CO)NC(=O)[C@H](Cc1c[nH]cn1)NC(=O)[C@H](CCCNC(=N)N)NC(=O)[C@H](CC(C)C)NC(=O)[C@H](Cc1ccccc1)NC(=O)[C@H](Cc1c[nH]cn1)NC(=O)[C@H](C)NC(=O)[C@H](CC(C)C)NC(=O)[C@H](CCCNC(=N)N)NC(=O)[C@H](CCC(N)=O)NC(=O)[C@@H](NC(=O)[C@H](C)NC(=O)[C@@H]1CSSC[C@H](NC(=O)[C@@H](N)CCCCNC(=O)COCCOCCNC(=O)CC[C@H](NC(=O)CCCCCCCCCCCCCCCCCCC(=O)O)C(=O)O)C(=O)N[C@@H](CC(N)=O)C(=O)N[C@@H]([C@@H](C)O)C(=O)N[C@@H](C)C(=O)N[C@@H]([C@@H](C)O)C(=O)N1)[C@@H](C)O)C(=O)N1CCC[C@H]1C(=O)N[C@@H](CO)C(=O)N[C@@H](CO)C(=O)N[C@H](C(=O)N[C@@H](CC(N)=O)C(=O)N[C@H](C(=O)NCC(=O)N[C@@H](Cc1c[nH]cn1)C(=O)N[C@@H](CC(N)=O)C(=O)N[C@H](C(=O)N[C@@H](Cc1ccc(O)cc1)C(N)=O)[C@@H](C)O)C(C)C)[C@@H](C)O, Analogue of human amylin; disulfide and C-terminal amide as told for h-amylin; also called compound 80)", "values": [
      {"measurement": "Ratio rCT/rAmylin binding", "setting": "rat calcitonin receptor [1]", "value": 36.2},
      {"measurement": "Ratio hCT/hAmylin binding", "setting": "[2]", "value": 68.1},
      {"measurement": "IC50", "setting": "rat calcitonin receptor [3]", "value": 60.4, "unit": "nM"}
    ]},
    {"binder": "K([AEEA-γGlu-C20 diacid])CNTATCATQRLAHFLRHSSPNFGAIPSSTNVGPNTY-NH2 (disulfide 2-7; N-terminus assumed; SMILES CC[C@H](C)[C@H](NC(=O)[C@H](C)NC(=O)CNC(=O)[C@H](Cc1ccccc1)NC(=O)[C@H](CC(N)=O)NC(=O)[C@@H]1CCCN1C(=O)[C@H](CO)NC(=O)[C@H](CO)NC(=O)[C@H](Cc1c[nH]cn1)NC(=O)[C@H](CCCNC(=N)N)NC(=O)[C@H](CC(C)C)NC(=O)[C@H](Cc1ccccc1)NC(=O)[C@H](Cc1c[nH]cn1)NC(=O)[C@H](C)NC(=O)[C@H](CC(C)C)NC(=O)[C@H](CCCNC(=N)N)NC(=O)[C@H](CCC(N)=O)NC(=O)[C@@H](NC(=O)[C@H](C)NC(=O)[C@@H]1CSSC[C@H](NC(=O)[C@@H](N)CCCCNC(=O)COCCOCCNC(=O)CC[C@H](NC(=O)CCCCCCCCCCCCCCCCCCC(=O)O)C(=O)O)C(=O)N[C@@H](CC(N)=O)C(=O)N[C@@H]([C@@H](C)O)C(=O)N[C@@H](C)C(=O)N[C@@H]([C@@H](C)O)C(=O)N1)[C@@H](C)O)C(=O)N1CCC[C@H]1C(=O)N[C@@H](CO)C(=O)N[C@@H](CO)C(=O)N[C@H](C(=O)N[C@@H](CC(N)=O)C(=O)N[C@H](C(=O)NCC(=O)N1CCC[C@H]1C(=O)N[C@@H](CC(N)=O)C(=O)N[C@H](C(=O)N[C@@H](Cc1ccc(O)cc1)C(N)=O)[C@@H](C)O)C(C)C)[C@@H](C)O, Analogue of human amylin; disulfide and C-terminal amide as told for h-amylin; also called compound 68)", "values": [
      {"measurement": "Ratio rCT/rAmylin binding", "setting": "rat calcitonin receptor [1]", "value": 122},
      {"measurement": "Ratio hCT/hAmylin binding", "setting": "[2]", "value": 64.4},
      {"measurement": "IC50", "setting": "rat calcitonin receptor [3]", "value": 28.5, "unit": "nM"}
    ]}
  ]
}
